Patent publication US10428140B2, “Anti-EphA4 antibody” (EISAI R&D MANAGEMENT CO., LTD., priority 2015, dated 2019)

What was measured:
Experiment in all cases: Selectivity ELISA of humanized antibodies for human Eph receptor
Assay type in all cases: binding
Details in all cases: coated protein 1 nM
human EphB2 = biological target: T1, human EphB2 (Homo sapiens, UniProt P29323)
T1 construct: a protein of the extracellular region of each human Eph receptor fused with the SEAP protein and the His tag; made in house; host or cells: Expi293F cells
T1 sequence (P29323 19-543 limits assumed): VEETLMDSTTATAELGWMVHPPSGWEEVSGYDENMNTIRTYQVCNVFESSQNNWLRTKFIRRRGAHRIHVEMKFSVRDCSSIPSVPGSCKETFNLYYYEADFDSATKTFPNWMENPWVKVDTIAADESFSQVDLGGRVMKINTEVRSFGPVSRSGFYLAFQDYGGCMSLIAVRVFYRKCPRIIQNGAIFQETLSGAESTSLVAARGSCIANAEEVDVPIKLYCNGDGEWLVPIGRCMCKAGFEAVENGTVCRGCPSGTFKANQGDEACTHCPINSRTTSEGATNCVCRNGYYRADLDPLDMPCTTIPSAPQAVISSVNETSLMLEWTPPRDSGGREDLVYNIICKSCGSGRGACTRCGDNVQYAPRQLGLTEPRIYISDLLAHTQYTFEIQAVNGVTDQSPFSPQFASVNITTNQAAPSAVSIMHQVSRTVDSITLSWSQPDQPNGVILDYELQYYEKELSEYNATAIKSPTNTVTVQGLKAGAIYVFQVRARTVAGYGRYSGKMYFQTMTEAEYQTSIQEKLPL
In short: (§1)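 Steps: coat anti-His antibody; block, then 1% BlockAce overnight at 4 °C; add Eph receptor extracellular region-SEAP-His (1 nM final) 1 h; add humanized antibody 1 h; add HRP anti-IgG 1 h; develop TMB; stop with acid; read 450 nm.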

human EphA2 = biological target: T2, human EphA2 (Homo sapiens, UniProt P29317)
T2 construct: a protein of the extracellular region of each human Eph receptor fused with the SEAP protein and the His tag; made in house; host or cells: Expi293F cells (culture supernatant)
In short: as §1

SEAP-His = SEAP-His (Homo sapiens, UniProt P05187)
In short: as §1

human EphB4 = biological target: T3, human EphB4 (Homo sapiens, UniProt P54760)
T3 construct: a protein of the extracellular region of each human Eph receptor fused with the SEAP protein and the His tag; made in house; host or cells: Expi293F cells
T3 sequence (P54760 16-539 limits assumed): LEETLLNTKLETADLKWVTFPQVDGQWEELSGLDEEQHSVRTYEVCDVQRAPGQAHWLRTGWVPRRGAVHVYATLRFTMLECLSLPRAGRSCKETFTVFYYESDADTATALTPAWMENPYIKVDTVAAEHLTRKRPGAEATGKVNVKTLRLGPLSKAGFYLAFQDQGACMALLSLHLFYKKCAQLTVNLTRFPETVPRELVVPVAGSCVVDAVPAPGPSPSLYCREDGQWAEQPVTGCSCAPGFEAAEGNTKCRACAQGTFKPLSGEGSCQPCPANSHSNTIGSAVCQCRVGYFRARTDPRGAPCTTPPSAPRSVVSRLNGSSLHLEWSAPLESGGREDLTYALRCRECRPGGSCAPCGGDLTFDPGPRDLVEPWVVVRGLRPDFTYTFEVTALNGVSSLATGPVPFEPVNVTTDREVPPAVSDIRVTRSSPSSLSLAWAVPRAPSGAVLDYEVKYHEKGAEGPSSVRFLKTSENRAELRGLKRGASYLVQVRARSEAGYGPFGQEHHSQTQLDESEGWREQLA
In short: as §1

human EphA3 = biological target: T4, human EphA3 (Homo sapiens, UniProt P29320)
T4 construct: a protein of the extracellular region of each human Eph receptor fused with the SEAP protein and the His tag; made in house; host or cells: Expi293F cells (culture supernatant)
T4 sequence (P29320 21-541 limits assumed): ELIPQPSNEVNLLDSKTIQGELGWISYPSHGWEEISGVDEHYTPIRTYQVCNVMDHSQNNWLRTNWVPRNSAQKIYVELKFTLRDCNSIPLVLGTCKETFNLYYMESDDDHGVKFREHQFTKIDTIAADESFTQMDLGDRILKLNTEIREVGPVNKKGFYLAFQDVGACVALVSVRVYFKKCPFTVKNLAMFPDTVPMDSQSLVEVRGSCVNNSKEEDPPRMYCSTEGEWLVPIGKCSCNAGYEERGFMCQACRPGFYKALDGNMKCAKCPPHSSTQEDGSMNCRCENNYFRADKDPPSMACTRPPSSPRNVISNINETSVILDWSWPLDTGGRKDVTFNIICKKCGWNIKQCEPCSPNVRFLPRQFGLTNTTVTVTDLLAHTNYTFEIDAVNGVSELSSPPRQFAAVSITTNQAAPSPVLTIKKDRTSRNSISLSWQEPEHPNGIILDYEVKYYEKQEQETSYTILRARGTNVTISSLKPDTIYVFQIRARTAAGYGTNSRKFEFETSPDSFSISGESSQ
In short: as §1

Sequence of SEAP-His (P05187 23-511 limits assumed): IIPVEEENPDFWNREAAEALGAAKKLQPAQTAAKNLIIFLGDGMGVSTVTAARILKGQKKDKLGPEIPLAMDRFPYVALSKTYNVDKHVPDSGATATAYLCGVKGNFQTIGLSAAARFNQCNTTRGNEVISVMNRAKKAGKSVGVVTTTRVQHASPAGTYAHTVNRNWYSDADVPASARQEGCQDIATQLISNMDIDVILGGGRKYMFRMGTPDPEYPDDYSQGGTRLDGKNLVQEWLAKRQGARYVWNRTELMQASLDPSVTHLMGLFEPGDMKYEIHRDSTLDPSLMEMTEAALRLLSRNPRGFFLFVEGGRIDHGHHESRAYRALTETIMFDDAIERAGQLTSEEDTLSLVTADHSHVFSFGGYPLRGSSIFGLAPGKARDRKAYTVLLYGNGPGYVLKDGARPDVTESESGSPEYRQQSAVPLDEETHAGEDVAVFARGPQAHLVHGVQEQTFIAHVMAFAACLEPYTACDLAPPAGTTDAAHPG
T2 sequence (P29317 24-537 limits assumed): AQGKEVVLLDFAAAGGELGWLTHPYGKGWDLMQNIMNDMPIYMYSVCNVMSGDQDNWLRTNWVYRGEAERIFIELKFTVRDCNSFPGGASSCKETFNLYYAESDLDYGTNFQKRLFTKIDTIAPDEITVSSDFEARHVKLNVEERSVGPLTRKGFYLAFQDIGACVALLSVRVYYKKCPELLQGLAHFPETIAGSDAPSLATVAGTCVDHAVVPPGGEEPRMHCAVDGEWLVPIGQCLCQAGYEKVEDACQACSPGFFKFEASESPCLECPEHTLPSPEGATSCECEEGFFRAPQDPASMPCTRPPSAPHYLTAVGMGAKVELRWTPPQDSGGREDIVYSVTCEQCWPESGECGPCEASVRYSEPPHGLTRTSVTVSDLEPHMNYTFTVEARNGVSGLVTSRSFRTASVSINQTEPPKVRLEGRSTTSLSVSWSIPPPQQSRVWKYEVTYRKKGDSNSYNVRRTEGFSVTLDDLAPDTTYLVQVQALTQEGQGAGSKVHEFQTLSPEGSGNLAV

Molecule | hEphB2-SEAP-: absorbance at 450 nm, percentage with respect to hEphA4-SEAP-His as 100% (human EphB2) [%] | hEphA2-SEAP-: absorbance at 450 nm, percentage with respect to hEphA4-SEAP-His as 100% (human EphA2) [%] | SEAP-His: absorbance at 450 nm, percentage with respect to hEphA4-SEAP-His as 100% (SEAP-His) [%] | hEphB4-SEAP-: absorbance at 450 nm, percentage with respect to hEphA4-SEAP-His as 100% (human EphB4) [%] | hEphA3-SEAP-: absorbance at 450 nm, percentage with respect to hEphA4-SEAP-His as 100% (human EphA3) [%]
156 (antibody, V domains shown, synthetic humanized antibody heavy chain variable region sequence; synthetic humanized antibody light chain variable region sequence) VH: QIQLVQSGSELKKPGASVKVSCKASGYTFTDYSMHWVRQAPGQGLKWMGWINTETGEPTYAQGFTGRFVFSLDTSVSTAYLQISSLKAEDTAVYYCARIPLYYYGSRYWYFDVWGQGTTVTVSS VL: DIQMTQSPSSLSASVGDRVTITCRASENIYRNLAWYQQKPGKAPQLLLYAATNLADGVPSRFSGSGSGTDYTLTISSLQPEDFATYYCQHFWGTPWTFGQGTKVEIK | 5.5 | 5.5 | 5.4 | 5.6 | 5.7
136 (antibody, V domains shown, synthetic humanized antibody heavy chain variable region sequence; synthetic humanized antibody light chain variable region sequence) VH: QVQLVQSGSELKKPGASVKVSCKASGYTFTDYSMHWVRQAPGQGLKWMGWINTETGEPTYADDFKGRFVFSLDTSVSTAYLQISSLKAEDTAVYYCARIPLYYYGSRYWYFDVWGQGTTVTVSS VL: EIVMTQSPATLSVSPGERATLSCRASENIYRNLAWYQQKPGQSPRLLIYAATNLADGIPARFSGSGSGTEYTLTISSLQSEDFAVYYCQHFWGTPWTFGQGTKVEIK | 5.3 | 5.1 | 5.2 | 5.2 | 5.2
